Source: PMC6032869 (Allergy, 2018)

Experiments:
[1] = molecular target: T1, recombinant Bet v 1, major birch pollen allergen (Betula pendula (B. verrucosa), UniProt P15494); test: cell-based or functional assay
bovine serum albumin = molecular target: T2, bovine serum albumin (Bos taurus, UniProt P02769); test: ELISA; allergens, fragments, peptides or BSA coated at 4 ug/mL in 1xPBS; blocked with 1xPBS/3% BSA; 1 ug/mL H3-1 added; bound ScFv traced with anti-E Tag antibody; conditions: both partners purified
T2 construct: bovine serum albumin, control protein; also called BSA
T2 sequence (P02769 25-607): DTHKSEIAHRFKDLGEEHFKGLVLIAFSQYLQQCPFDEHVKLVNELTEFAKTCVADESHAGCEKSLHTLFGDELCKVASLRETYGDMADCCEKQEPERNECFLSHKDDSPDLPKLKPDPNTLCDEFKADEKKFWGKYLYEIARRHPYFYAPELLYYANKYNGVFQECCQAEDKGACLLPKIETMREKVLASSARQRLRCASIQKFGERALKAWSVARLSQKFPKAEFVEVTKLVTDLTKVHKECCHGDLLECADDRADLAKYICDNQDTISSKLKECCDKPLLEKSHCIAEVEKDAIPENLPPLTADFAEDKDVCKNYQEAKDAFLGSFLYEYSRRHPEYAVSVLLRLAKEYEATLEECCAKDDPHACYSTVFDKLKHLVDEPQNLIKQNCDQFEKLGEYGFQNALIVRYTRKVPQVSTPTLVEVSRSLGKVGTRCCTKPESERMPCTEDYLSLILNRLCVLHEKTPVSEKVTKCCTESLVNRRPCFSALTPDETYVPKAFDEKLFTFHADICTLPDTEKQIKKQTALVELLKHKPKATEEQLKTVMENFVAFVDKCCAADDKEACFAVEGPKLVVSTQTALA

[2] = molecular target: T3, synthetic Bet v 1-derived peptide 5 (aa 130-160) (Betula pendula, UniProt P15494); test: as above; conditions: both partners purified
T3 construct: Bet v 1, birch, Swissprot P15494, C-terminal peptide aa 130-160; also called C-terminal peptide 5; source: synthetic peptide
T3 chain: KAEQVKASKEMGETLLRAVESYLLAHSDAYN

[3] = molecular target: T1, recombinant Bet v 1, major birch pollen …; test: SPR; Biacore 2000, 25°C; allergens amine-coupled to CM5 chip; reference cell BSA; H3-1 in HBS-EP pH 7.4 injected in twofold increasing concentrations at 30 uL/min; 1:1 interaction model; conditions: both partners purified
[4] = molecular target: T4, Aln g 1, Bet v 1-related allergen from alder (Alnus glutinosa, UniProt P38948); test: as above; conditions: both partners purified
T4 construct: Aln g 1, alder pollen allergen, Swissprot P38948; source: recombinant; materials described in Data S1

[5] = molecular target: T5, Cor a 1, Bet v 1-related allergen from hazel (Corylus avellana, UniProt Q08407); test: as above; conditions: both partners purified
T5 construct: Cor a 1, hazel allergen, Swissprot Q08407; source: recombinant; materials described in Data S1

[6] = molecular target: T6, Mal d 1, Bet v 1-related allergen from apple (Malus domestica, UniProt Q9SYW3); test: as above; conditions: both partners purified
T6 construct: Mal d 1, apple allergen, Swissprot Q9SYW3; source: recombinant; materials described in Data S1
T6 sequence (Q9SYW3 entry or part of it): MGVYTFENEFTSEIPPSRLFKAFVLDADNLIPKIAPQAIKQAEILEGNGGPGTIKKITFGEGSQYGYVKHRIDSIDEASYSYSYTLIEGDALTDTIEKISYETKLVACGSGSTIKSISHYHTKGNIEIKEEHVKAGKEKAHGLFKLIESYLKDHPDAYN

[7] = molecular target: T4, Aln g 1, Bet v 1-related allergen from …; test: ELISA; inhibition ELISA: plate-bound allergen (1 ug/mL) pre-incubated with 20 ug/mL H3-1 or control ScFv, then sera of birch pollen-allergic patients diluted 1:5; bound IgE detected; % reduction against control ScFv; conditions: both partners purified
Target sequence in this assay (P38948 whole entry, looked up): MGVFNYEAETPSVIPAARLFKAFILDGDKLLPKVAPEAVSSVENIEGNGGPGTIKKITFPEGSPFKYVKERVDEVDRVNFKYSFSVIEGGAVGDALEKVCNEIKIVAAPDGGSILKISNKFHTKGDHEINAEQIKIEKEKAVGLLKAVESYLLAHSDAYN

[8] = molecular target: T5, Cor a 1, Bet v 1-related allergen from …; test: as above; conditions: both partners purified
Target sequence in this assay (Q08407 whole entry, looked up): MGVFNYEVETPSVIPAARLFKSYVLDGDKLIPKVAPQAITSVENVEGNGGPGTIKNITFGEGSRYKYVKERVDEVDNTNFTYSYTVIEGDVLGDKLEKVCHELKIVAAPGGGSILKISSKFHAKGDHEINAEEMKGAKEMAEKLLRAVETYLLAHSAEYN

[9] = molecular target: T6, Mal d 1, Bet v 1-related allergen from …; test: as above; conditions: both partners purified
[10] = molecular target: T1, recombinant Bet v 1, major birch pollen …; test: as above; conditions: both partners purified
[11] = molecular target: T4, Aln g 1, Bet v 1-related allergen from …; test: as above; conditions: both partners purified; remark: listed apart in the source
Target sequence in this assay (P38948 whole entry, looked up): as the sequence (P38948 whole entry, looked up) above

B1: Bet v 1-specific IgG-derived ScFv H3-1 (scFv, V domains shown)
VH: QVQLVQSGAEVKKPGSSVKVSCKASGGTFSSYAISWVRQAPGQGLEWMGRIIPILGIVNYAQKFQGRVTITADKSTSTAYMELSSLRSEDTAVYYCAREPLGYCSGGSCYPLHNGMDVWGQGTTVTVSS
VL: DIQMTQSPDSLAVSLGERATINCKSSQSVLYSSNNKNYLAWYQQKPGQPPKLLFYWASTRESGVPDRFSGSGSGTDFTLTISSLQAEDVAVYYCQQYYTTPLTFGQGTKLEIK
notes: VH of H3-1 (H3-1_HV); (Gly4Ser)3 linker; V kappa of H3-1 (H3-1_KV); Cloned in phagemid pCANTAB 5E; The E tag is named for the direct ELISA (detection with anti-E Tag antibody); A form with a C-terminal His tag was also constructed; also called ScFv (clone H3-1); H3-1 ScFv; source: also tested as soluble ScFv after conversion of phage clones; not shown: E tag, C-terminal, kept
- Bet v 1-induced basophil activation (CD203c upregulation), blood of patient #12; Bet v 1 pre-incubated with H3-1 against control ScFv [1]: ~5 fold
- Bet v 1-induced basophil activation (CD203c upregulation), blood of patient #14; Bet v 1 pre-incubated with H3-1 against control ScFv; augmentation, not reduction [1]: ~5 fold
- Bet v 1-induced basophil activation (CD203c upregulation), blood of patient #22; Bet v 1 pre-incubated with H3-1 against control ScFv [1]: ~25 fold
- Bet v 1-induced basophil activation (CD203c upregulation), blood of patient #26; Bet v 1 pre-incubated with H3-1 against control ScFv [1]: ~5 fold
- binding result (bovine serum albumin): no binding (tested: 1 μg/mL H3-1)
- binding result [2]: binds
- Kd [3]: 0.622 nM
- koff [3]: 0.00022 s⁻¹
- kon [3]: 353000 M⁻¹ s⁻¹
- Kd [4]: 2.96 nM
- koff [4]: 0.00112 s⁻¹
- kon [4]: 378000 M⁻¹ s⁻¹
- Kd [5]: 6.83 nM
- koff [5]: 0.000299 s⁻¹
- kon [5]: 43800 M⁻¹ s⁻¹
- Kd [6]: 2.57 nM
- koff [6]: 0.000145 s⁻¹
- kon [6]: 56400 M⁻¹ s⁻¹
- mean % inhibition of patients' IgE binding [7]: 11.9%
- mean % inhibition of patients' IgE binding [8]: 24.3%
- mean % inhibition of patients' IgE binding [9]: 13.5%
- % inhibition of IgE binding, patient 1 [10]: 60.9%
- % inhibition of IgE binding, patient 5 [10]: 27.6%
- % inhibition of IgE binding, patient 7 [10]: 42.2%
- % inhibition of IgE binding, patient 9 [10]: 52.8%
- % inhibition of IgE binding, patient 10 [10]: 41.7%
- % inhibition of IgE binding, patient 11 [10]: 51.3%
- % inhibition of IgE binding, patient 12 [10]: 61.4%
- % inhibition of IgE binding, patient 13 [10]: 50.5%
- % inhibition of IgE binding, patient 16 [10]: 49.2%
- % inhibition of IgE binding, patient 17 [10]: 51%
- % inhibition of IgE binding, patient 18 [10]: 57.4%
- % inhibition of IgE binding, patient 19 [10]: 54.6%
- % inhibition of IgE binding, patient 20 [10]: 15.8%
- % inhibition of IgE binding, patient 21 [10]: 44.9%
- % inhibition of IgE binding, patient 22 [10]: 62.9%
- % inhibition of IgE binding, patient 23 [10]: 47.3%
- % inhibition of IgE binding, patient 24 [10]: 44.3%
- % inhibition of IgE binding, patient 25 [10]: 62.9%
- % inhibition of IgE binding, patient 26 [10]: 50.6%
- % inhibition of IgE binding, patient 27 [10]: 62.1%
- % inhibition of IgE binding, patient 29 [10]: 38.8%
- % inhibition of IgE binding, patient 30 [10]: 56.8%
- mean % inhibition of patients' IgE binding [10]: 45%
- % inhibition of IgE binding, patient 1 [11]: 8.2%
- % inhibition of IgE binding, patient 7 [11]: 6.3%
- % inhibition of IgE binding, patient 9 [11]: 15.3%
- % inhibition of IgE binding, patient 11 [11]: 22.5%
- % inhibition of IgE binding, patient 12 [11]: 14.5%
- % inhibition of IgE binding, patient 13 [11]: 11.4%
- % inhibition of IgE binding, patient 16 [11]: 16.3%
- % inhibition of IgE binding, patient 17 [11]: 25%
- % inhibition of IgE binding, patient 19 [11]: 16.5%
- % inhibition of IgE binding, patient 20 [11]: 6.9%
